From the supplement of paper PMC6757056
± gives the standard deviation of the averaged measurements.

B1: library; a variant is named by its letters at N, in order (parent)
chain: GCUGUCACCGAGAAACUGUGAAGUAUAUCUUAAACCUGGGCACUUAAAAGAUAUAUGGAGUUAGUAGUGCAACCUGCUCGGUCUGAUGAGUCCNNNNNNGGACGAAACAGC

Assays:
cyclic di-GMP [1] = variants of: B1; experiment: normalized RNA/DNA level without ligand (relative to sTRSVctl = 100) (log10 (% of sTRSVctl)); HEK293T; ligand: cyclic di-GMP (c-di-GMP-II aptamer); higher = less ribozyme self-cleavage, higher mRNA level; conditions: reporter: mCherry (pCS4076), ligand present: no
Summary of the method: (§1)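 Only sequences with at least 100 DNA reads were analyzed, from HEK293T cells transfected with 4 µg per 6-well well of ribozyme switch library plasmids 72 h before RNA extraction with EDTA. Any ligand was added 1 h before transfection. RNA level was defined as RNA over DNA reads, normalized to a spiked-in non-cleaving sequence or to the top sequences, then scaled and log-transformed. The top set was 25 sequences, and the scaling was ×100 followed by log10.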

cyclic di-GMP [2] = variants of: B1; experiment: normalized RNA/DNA level with ligand (relative to sTRSVctl = 100) (log10 (% of sTRSVctl)); HEK293T; ligand: cyclic di-GMP (c-di-GMP-II aptamer); ligand concentration (+) RNA-Seq: 1 mM; higher = less ribozyme self-cleavage, higher mRNA level; conditions: reporter: mCherry (pCS4076), ligand present: yes
Summary of the method: as §1

Row | Variant | normalized RNA/DNA level without ligand (log10) (cyclic di-GMP [1]) | normalized RNA/DNA level with ligand (log10) (cyclic di-GMP [2])
1 | AGGCAA | 1.45 ± 0.082 | 1.6 ± 0.11
2 | AGGCAU | 1.63 ± 0.018 | 1.83 ± 0.11
3 | CGCGAU | 1.58 ± 0.05 | 1.79 ± 0.14
4 | CGCGAC | 1.62 ± 0.041 | 1.8 ± 0.046
5 | CGCGAA | 1.23 ± 0.12 | 1.44 ± 0.11
6 | CGCGAG | 1.743 ± 0.0083 | 1.828 ± 0.012
7 | AGGGCG | 1.78 ± 0.0082 | 1.84 ± 0.11
8 | AGGGCA | 1.756 ± 0.017 | 1.81 ± 0.048
9 | AGGGCC | 1.84 ± 0.052 | 1.93 ± 0.068
10 | AGGGCU | 1.69 ± 0.034 | 1.85 ± 0.088
11 | AGGGAA | 1.41 ± 0.11 | 1.53 ± 0.061
12 | AGGGAC | 1.55 ± 0.12 | 1.7 ± 0.16
13 | AGGGAU | 1.54 ± 0.084 | 1.74 ± 0.086
14 | UGGAGA | 1.58 ± 0.082 | 1.76 ± 0.069
15 | UGGAGG | 1.699 ± 0.0024 | 1.84 ± 0.14
16 | UGGAGU | 1.59 ± 0.1 | 1.76 ± 0.11
17 | UGGAGC | 1.64 ± 0.062 | 1.81 ± 0.15
18 | UGGCGA | 1.597 ± 0.0046 | 1.74 ± 0.11
19 | UGGCGG | 1.854 ± 0.013 | 1.93 ± 0.13
20 | UGGCGC | 1.818 ± 0.018 | 1.9 ± 0.14

Row | Variant | normalized RNA/DNA level without ligand (log10) (cyclic di-GMP [1]) | normalized RNA/DNA level with ligand (log10) (cyclic di-GMP [2])
21 | UGGCGU | 1.6 ± 0.03 | 1.81 ± 0.16
22 | CGGCUG | 1.74 ± 0.087 | 1.87 ± 0.12
23 | CGGCUC | 1.782 ± 0.0084 | 1.85 ± 0.085
24 | AGCUAU | 1.7 ± 0.05 | 1.84 ± 0.12
25 | AGCUAA | 1.49 ± 0.02 | 1.7 ± 0.13
26 | AGCUAC | 1.709 ± 0.017 | 1.81 ± 0.14
27 | AGCUAG | 1.54 ± 0.026 | 1.72 ± 0.16
28 | UGCGAA | 1.69 ± 0.054 | 1.784 ± 0.013
29 | UGCGAC | 1.685 ± 0.016 | 1.82 ± 0.08
30 | UGCGAU | 1.605 ± 0.0035 | 1.8 ± 0.091
31 | CGGAUC | 1.63 ± 0.036 | 1.72 ± 0.15
32 | CGGAUG | 1.64 ± 0.057 | 1.77 ± 0.17
33 | UGGAUG | 1.62 ± 0.027 | 1.82 ± 0.11
34 | UGGAUA | 1.65 ± 0.043 | 1.8 ± 0.11
35 | UGGAUU | 1.669 ± 0.0092 | 1.81 ± 0.13
36 | UGGAUC | 1.699 ± 0.0067 | 1.88 ± 0.097
37 | AGGCUA | 1.51 ± 0.084 | 1.65 ± 0.095
38 | AGGCUC | 1.78 ± 0.034 | 1.87 ± 0.087
39 | AGGCUG | 1.774 ± 0.0035 | 1.87 ± 0.051
40 | GGGAUA | 1.54 ± 0.19 | 1.66 ± 0.044

Row | Variant | normalized RNA/DNA level without ligand (log10) (cyclic di-GMP [1]) | normalized RNA/DNA level with ligand (log10) (cyclic di-GMP [2])
41 | GGGAUC | 1.66 ± 0.064 | 1.77 ± 0.09
42 | GGGAUU | 1.66 ± 0.024 | 1.77 ± 0.12
43 | UGCUUC | 1.766 ± 0.017 | 1.89 ± 0.093
44 | UGCUUG | 1.74 ± 0.06 | 1.88 ± 0.14
45 | UGCUUA | 1.75 ± 0.023 | 1.87 ± 0.095
46 | CGCCGG | 1.711 ± 0.011 | 1.85 ± 0.11
47 | CGCCGC | 1.8 ± 0.068 | 1.91 ± 0.11
48 | CGCCGA | 1.6 ± 0.065 | 1.81 ± 0.072
49 | CGCCGU | 1.77 ± 0.049 | 1.87 ± 0.063
50 | CGGGCC | 1.92 ± 0.02 | 1.95 ± 0.067
51 | CGGGCG | 1.83 ± 0.066 | 1.94 ± 0.092
52 | CGGGCU | 1.84 ± 0.033 | 1.92 ± 0.14
53 | CGGGCA | 1.81 ± 0.064 | 1.9 ± 0.13
54 | UGGGAG | 1.673 ± 0.012 | 1.79 ± 0.14
55 | UGGGAU | 1.55 ± 0.12 | 1.75 ± 0.11
56 | UGGGAC | 1.697 ± 0.01 | 1.84 ± 0.078
57 | UGGAAG | 1.68 ± 0.026 | 1.81 ± 0.17
58 | UGGAAA | 1.626 ± 0.0078 | 1.83 ± 0.059
